For one substance, Kd results are on record in article doi:10.1101/2023.06.15.545061.

For this experiment, the target named is biotinylated 10-mer C-terminal PBM peptide of DGKζ (human) (UniProt Q13574).
Chain of biotinylated 10-mer C-terminal PBM peptide of DGKζ (human) (Q13574 whole entry, looked up, tested part not stated): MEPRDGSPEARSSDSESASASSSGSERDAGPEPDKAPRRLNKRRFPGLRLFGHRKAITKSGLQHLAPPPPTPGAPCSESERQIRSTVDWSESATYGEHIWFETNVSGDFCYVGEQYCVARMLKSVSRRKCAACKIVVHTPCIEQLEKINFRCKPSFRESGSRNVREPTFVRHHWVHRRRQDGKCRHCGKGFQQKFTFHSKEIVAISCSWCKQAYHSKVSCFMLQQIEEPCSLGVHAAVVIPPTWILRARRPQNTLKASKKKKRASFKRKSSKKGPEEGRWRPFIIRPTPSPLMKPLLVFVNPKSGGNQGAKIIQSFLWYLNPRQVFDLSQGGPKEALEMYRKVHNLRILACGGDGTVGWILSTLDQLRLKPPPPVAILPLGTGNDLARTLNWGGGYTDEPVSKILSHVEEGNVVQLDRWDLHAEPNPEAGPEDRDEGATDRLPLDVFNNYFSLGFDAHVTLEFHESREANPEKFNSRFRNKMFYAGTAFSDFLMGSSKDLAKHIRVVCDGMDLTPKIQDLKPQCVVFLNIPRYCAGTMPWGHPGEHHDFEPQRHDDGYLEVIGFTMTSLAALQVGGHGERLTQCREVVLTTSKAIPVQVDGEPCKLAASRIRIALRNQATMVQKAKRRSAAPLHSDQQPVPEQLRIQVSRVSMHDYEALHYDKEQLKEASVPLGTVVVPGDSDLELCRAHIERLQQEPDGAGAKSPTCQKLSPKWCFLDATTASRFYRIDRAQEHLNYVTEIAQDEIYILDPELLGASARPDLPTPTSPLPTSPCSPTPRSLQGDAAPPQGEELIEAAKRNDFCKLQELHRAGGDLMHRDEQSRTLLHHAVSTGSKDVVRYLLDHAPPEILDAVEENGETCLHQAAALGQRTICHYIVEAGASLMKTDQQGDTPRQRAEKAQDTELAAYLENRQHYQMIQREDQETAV

SCRIB had a Kd of 24 µM.
